# Results reported in patent publication US10626404B2, “Mutant xylose-metabolizing enzyme and use thereof” (National Institute of Advanced Industrial Science and …, priority 2016, dated 2020).
# Positions count from the first letter of the chain named. Numbers in names are those of the source.
# B1: Clostridium phytofermentans ISDg xylose isomerase (CpXI, SEQ ID NO: 11) mutant CpXI-T63I (Lachnoclostridium phytofermentans ISDg; T63I) (protein)
# chain: MKNYFPNVPEVKYEGPNSTNPFAFKYYDANKVVAGKTMKEHCRFALSWWHTLCAGGADPFGVITMDRTYGNITDPMELAKAKVDAGFELMTKLGIEFFCFHDADIAPEGDTFEESKKNLFEIVDYIKEKMDQTGIKLLWGTANNFSHPRFMHGASTSCNADVFAYAAAKIKNALDATIKLGGKGYVFWGGREGYETLLNTDLGLELDNMARLMKMAVEYGRANGFDGDFYIEPKPKEPTKHQYDFDTATVLAFLRKYGLEKDFKMNIEANHATLAGHTFEHELAMARVNGAFGSVDANQGDPNLGWDTDQFPTDVHSATLAMLEVLKAGGFTNGGLNFDAKVRRGSFEFDDIAYGYIAGMDTFALGLIKAAEIIDDGRIAKFVDDRYASYKTGIGKAIVDGTTSLEELEQYVLTHSEPVMQSGRQEVLETIVNNILFR
# notes: cell lysate
# B2: Clostridium phytofermentans ISDg xylose isomerase (CpXI, SEQ ID NO: 11) mutant CpXI-V162A, N303T (Lachnoclostridium phytofermentans ISDg; N303T/V162A) (protein)
# chain: B1 chain with I63T, V162A, N303T
# notes: cell lysate
# B3: Clostridium phytofermentans ISDg xylose isomerase (CpXI, SEQ ID NO: 11) mutant CpXI-V162A (Lachnoclostridium phytofermentans ISDg; V162A) (protein)
# chain: B1 chain with I63T, V162A
# notes: cell lysate
# B4: Clostridium phytofermentans ISDg xylose isomerase (CpXI, SEQ ID NO: 11) mutant CpXI-N303T (Lachnoclostridium phytofermentans ISDg; N303T) (protein)
# chain: B1 chain with I63T, N303T
# notes: cell lysate
# B5: Clostridium phytofermentans ISDg xylose isomerase (CpXI, SEQ ID NO: 11) double mutant CpXI-T63I, V162A (Lachnoclostridium phytofermentans ISDg; T63I/V162A) (protein)
# chain: B1 chain with V162A
# notes: cell lysate
# B6: Clostridium phytofermentans ISDg xylose isomerase (CpXI), wild type, SEQ ID NO: 11 (Lachnoclostridium phytofermentans ISDg) (protein)
# chain: B1 chain with I63T
# Tests used:
# [1] = molecular target: T1, Clostridium phytofermentans ISDg xylose isomerase (CpXI, SEQ ID NO: 11) mutant CpXI-T63I (Lachnoclostridium phytofermentans, UniProt A9KN98, T63I); assay: Xylose isomerase activity (kinetic parameters) in cell disruption solution, strain SS82; format: biochemical; settings: T63I vs wild type CpXI
# T1 construct: cell lysate
# [2] = molecular target: T2, Clostridium phytofermentans ISDg xylose isomerase (CpXI, SEQ ID NO: 11) mutant CpXI-V162A, N303T (Lachnoclostridium phytofermentans, UniProt A9KN98, N303T/V162A); assay: Xylose isomerase activity (kinetic parameters) in cell disruption solution, strain SS92; format: biochemical; settings: N303T vs wild type CpXI
# T2 construct: cell lysate
# [3] = molecular target: T3, Clostridium phytofermentans ISDg xylose isomerase (CpXI, SEQ ID NO: 11) mutant CpXI-N303T (Lachnoclostridium phytofermentans, UniProt A9KN98, N303T); assay: Xylose isomerase activity (kinetic parameters) in cell disruption solution, strain SS105; format: biochemical; settings: cell disruptate after 24 h microaerobic fermentation, xylose 10-500 mM, pH 8.0, 30° C.
# T3 construct: cell lysate
# Description: (§1) The created mutant CpXI-V162A gene expression plasmid (Table 3: plasmid No. 31) and CpXI-N303T gene expression plasmid (Table 3: plasmid No. 32) were cleaved with BsiWI and used for transformation of strain SS29. The obtained strains were designated as strain SS104 (Table 4: strain No. 29) and strain SS105 (Table 4: strain No. 30), respectively.
# [4] = molecular target: T4, Clostridium phytofermentans ISDg xylose isomerase (CpXI, SEQ ID NO: 11) double mutant CpXI-T63I, V162A (Lachnoclostridium phytofermentans, UniProt A9KN98, T63I/V162A); assay: Xylose isomerase activity (kinetic parameters) in cell disruption solution, strain SS120; format: biochemical; settings: cell disruptate after 24 h microaerobic fermentation, xylose 10-500 mM, pH 8.0, 30° C.
# T4 construct: cell lysate
# [5] = molecular target: Clostridium phytofermentans ISDg xylose isomerase (CpXI), wild type, SEQ ID NO: 11 (Lachnoclostridium phytofermentans, UniProt A9KN98)
# [6] = test system: Piromyces sp. E2 xylose isomerase mutant E15D, E114G, E129D, T142S, A177T and V433I; settings: mutant vs wild type Piromyces sp. E2 xylose isomerase; NPL 10; cited from earlier work
# [7] = substrate: OC1OC[C@@H](O)[C@H](O)[C@H]1O; assay: cells, lysate or membranes; format: biochemical, Clostridium phytofermentans ISDg; settings: cell disruptate after 24 h microaerobic fermentation, xylose 10-500 mM, pH 8.0, 30° C.
# [8] = substrate: OC1OC[C@@H](O)[C@H](O)[C@H]1O; assay: cells, lysate or membranes; format: biochemical, Clostridium phytofermentans ISDg; settings: cell disruptate after 24 h microaerobic fermentation, xylose 10-500 mM, pH 8.0, 30° C.; remark: listed apart in the source
# Description: as §1
# [9] = substrate: OC1OC[C@@H](O)[C@H](O)[C@H]1O; assay: cells, lysate or membranes; settings: other: wild type (SS81), cell disruptate after 24 h microaerobic fermentation, xylose 10-500 mM, pH 8.0, 30° C.
molecule,measurement,setting,value
"OC1OC[C@@H](O)[C@H](O)[C@H]1O (stereo partly drawn) [xylose, D-xylose]",metabolic activity (Vmax) higher than the wild type,[1],38%
same,Vmax value compared with the wild type,[2],equivalent to the wild type
same,Vmax value,[3],0.030 ± 0.001 μmol mg protein^−1 min^−1
same,Vmax value,[4],0.104 ± 0.003 μmol mg protein^−1 min^−1
same,Vmax value,[5],0.66 μmol/mg protein/min
same,Km value compared with the wild type,[6],approximately twice as high
same,Vmax value larger than the wild type,[6],77%
B1,Km,[7]; other: T63I (SS82),29.2 mM
same,Vmax,[7]; other: T63I (SS82),0.091 µmol/min/mg
B2,Km,"[7]; other: V162A, N303T (SS92)",28.4 mM
same,Vmax,"[7]; other: V162A, N303T (SS92)",0.066 µmol/min/mg
B3,Km,[8]; other: V162A (SS104),29.5 mM
same,Vmax,[8]; other: V162A (SS104),0.063 µmol/min/mg
B4,Km,[8]; other: N303T (SS105),19.1 mM
same,Vmax,[8]; other: N303T (SS105),0.03 µmol/min/mg
B5,Km,"[7]; other: T63I, V162A (SS120)",34.4 mM
same,Vmax,"[7]; other: T63I, V162A (SS120)",0.104 µmol/min/mg
B6,Km,[9],46.9 mM
same,Vmax,[9],0.066 µmol/min/mg
